# Laboratory results reported in article PMC11088876, “Activin E is a transforming growth factor β ligand that signals specifically through activin receptor-like kinase 7” (Biochemical Journal, 2024).
# Biological target: the molecule itself
# Assay: SDS-PAGE under non-reducing and reducing conditions with anti-Flag western blot; conditioned medium of transfected ExpiCHO-S cells; 15% SDS gels; covalent (disulfide-linked) dimer against monomer
protein,measurement,value
"Flag-tagged mature ActE from Construct II (ligand, human, UniProt P58166 237-350, looked up, A233R lies in the furin site before the cut and is surmised not to stand in the mature chain; Furin processing was incomplete: the medium also holds singly and doubly unprocessed species and a smaller clipping product; also called Flag-ActE; ActE Construct II; source: ExpiCHO-S, transfected, conditioned medium (concentrated 20x); not shown: Flag, N-terminal, kept) TPTCEPATPLCCRRDHYVDFQELGWRDWILQPEGYQLNYCSGQCPPHLAGSPGIAASFHSAVFSLLKANNPWPASTSCCVPTARRPLSLLYLDHNGNVVKTDVPDMVVEACGCS",stoichiometry N,2
